Reference: the supplement of paper PMC10567573
± gives the standard deviation.

Test: protein stability index of a GFP-peptide fusion (GPS, HEK-293T) (PSI 1-6); higher = more stable
[1] = treatment: DMSO, c terminus: a fixed tail appended
[2] = treatment: MLN4924 1 uM, 8 h, c terminus: a fixed tail appended
[3] = treatment: DMSO, c terminus: native
[4] = treatment: MLN4924 1 uM, 8 h, c terminus: native
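Further: 24-mer peptide tiles fused after GFP, lentivirally expressed, FACS-sorted into six equal bins by GFP/DsRed ratio, decoded by Illumina sequencing, PSI is the read-weighted mean bin number.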

| Sequence | protein stability index [1] | protein stability index [2] | protein stability index [3] | protein stability index [4] |
| --- | --- | --- | --- | --- |
| PEIQKVRAQEREQIKALNNKFASF [KRT71] | 3.78 ± 0.32 | 3.86 ± 0.44 |  |  |
| CVTLMQGHEGSVSSCHFARDSSFL [WDR88] | 2.28 ± 0.57 | 2.39 ± 0.13 |  |  |
| IELDRTIMPDGTIVTTVTTVQSRP [C2CD2L] | 2.1 ± 0.14 | 2.09 ± 0.23 |  |  |
| VIRLKQEQHVHNEKSVLKEVSHPF [PRKX] | 3.36 ± 0.062 | 3.62 ± 0.36 |  |  |
| RELREVRRVPPRFSIPPTNHEIMP [PTPRD] | 3.74 ± 0.093 | 3.88 ± 0.14 |  |  |
| AVAGPPAAAEVGGGVGGSSRARSA [ANKRD17] | 5.36 ± 0.22 | 5.14 ± 0.33 |  |  |
| LCREEPVVQGPDGRLELKPLLLRL [FANCE] | 2.19 ± 0.25 | 2.48 ± 0.15 |  |  |
| QSSGKVMYFSSLFPYVVLACFLVR [SLC6A17] | 2.6 ± 0.76 | 2.41 ± 0.24 |  |  |
| ALKKSADWVSDWSSRPENIPPKEF [BNIP3L] | 3.55 ± 0.23 | 3.77 ± 0.18 |  |  |
| PHFLRVPCWKITLFVIVPVLGPLV [MOG] | 2.9 ± 0.65 | 2.85 ± 0.3 |  |  |
| SFPLEWAPQNLTRWTFEKACHPFL [TOR1AIP2] | 2.12 ± 0.093 | 2.31 ± 0.12 |  |  |
| TREAVTEILGIEPDREKGFHLDVE [TSN] | 4.62 ± 0.063 | 4.64 ± 0.12 |  |  |
| LQAIKAAIMLLPDENREVLQTLLY [DLC1] | 2.23 ± 0.42 | 2.22 ± 0.16 |  |  |
| NITVQKKVSQWWERLTKQEKRPLF [HACD3] | 2.65 ± 0.18 | 2.91 ± 0.13 |  |  |
| SGMGGRAPVSRGRDSYGGPPRREP [RBMX] | 4.45 ± 0.28 | 4.61 ± 0.29 |  |  |
| EKHCEFKQLALDHFKKTKKMGGKD [ATL3] | 4.64 ± 0.14 | 4.57 ± 0.39 |  |  |
| AARAVRANDINYQDQIPRTLEEFV [FEM1B] | 3.96 ± 0.21 | 3.77 ± 0.32 |  |  |
| GEFPSPVSISIISSTSGGSGYGFR [KRT71] | 2.65 ± 0.34 | 3.04 ± 0.64 |  |  |
| DPGADSEKSTVVEGGEVRFNGKGK [DLX1] | 5.51 ± 0.22 | 5.58 ± 0.18 |  |  |
| RGKNKMAAQNCRKRKLDTILNLER [NFE2L1] | 3.57 ± 0.33 | 3.63 ± 0.24 |  |  |
| KETLRLHPDIFLPSEICDRLVNEY [ZER1] | 2.82 ± 0.39 | 2.83 ± 0.21 |  |  |
| ETRAEDPPWFEGLESRFQSKSGYL [DFFB] | 3.56 ± 0.063 | 3.63 ± 0.069 |  |  |

| Sequence | protein stability index [1] | protein stability index [2] | protein stability index [3] | protein stability index [4] |
| --- | --- | --- | --- | --- |
| MQAAEVFSQKHFPEVVQHEEFILL [KLHL12] | 2.17 ± 0.48 | 2.44 ± 0.73 |  |  |
| IIELLGSIPRHFALSGKYSREFFN [SRPK2] | 2.75 ± 0.54 | 2.56 ± 0.39 |  |  |
| QGRFCTIFRSYSRGAQGVILVYDI [RAB40A] | 3.15 ± 0.35 | 2.99 ± 0.43 |  |  |
| TDIKDESCCMTEEIFGPVTCVVPF [ALDH8A1] | 3.53 ± 0.23 | 3.48 ± 0.3 |  |  |
| PLQFLGLFENSLCRLTHIPAYKVS [ZER1] | 2.02 ± 0.55 | 2.08 ± 0.5 |  |  |
| AIAWCLRNEGVSSVLLGASNADQL [KCNAB2] | 2.23 ± 0.27 | 2.1 ± 0.13 |  |  |
| VEAMYCYLRCIQSEVSFEGAYGNL [SMG5] | 3.13 ± 0.35 | 3.12 ± 0.63 |  |  |
| MEQPTSSTNGEKTKSPCESNNKKN [SPANXN3] | 5.32 ± 0.33 | 4.92 ± 0.85 |  |  |
| AWFGFAGTPGYLSPEVLRKDPYGK [CAMK2A] | 2.46 ± 0.2 | 2.88 ± 0.34 |  |  |
| KLSSFYSLKLIKRLYVDKSLNLST [SERPINB5] | 2.46 ± 0.42 | 2.18 ± 0.36 |  |  |
| LLFDMTTHPVTNTTEKQRLVKKLQ [GOLPH3L] | 2.61 ± 0.26 | 2.83 ± 0.41 |  |  |
| SEDTLTIHGLPTEGYQALYHAVVE [C22orf31] | 3.19 ± 0.27 | 3.24 ± 0.36 |  |  |
| PALEEAPDSHQKRPQHSHSNKKRP [ELOA2] | 5.52 ± 0.25 | 5.33 ± 0.46 |  |  |
| SAPLQGAVPPTSSVPPVAGAPSVG [SNAP91] | 4.91 ± 0.19 | 4.99 ± 0.081 |  |  |
| RLRPLTLSTPKPLVDFCNKPILLH [GMPPB] | 2.31 ± 0.14 | 2.46 ± 0.51 |  |  |
| DSAQFTKALAIILHLLYLLEKVEC [FEM1A] | 2.22 ± 0.33 | 2.11 ± 0.34 |  |  |
| TVEQGCQILDSLSYMRNENVISEL [FBXO39] | 3.5 ± 0.43 | 3.41 ± 0.42 |  |  |
| NVNRLNESFRDLQLRLLQAPLQAD [SCARA5] | 3.3 ± 0.38 | 3.33 ± 0.34 |  |  |
| HPSENIIAVAATNNLYIFQDKVN [PPP2R2B] |  |  | 2.44 ± 0.22 | 2.64 ± 0.21 |
| SDSGDGVYAGRPLSVIQMVAFLEQ [FBXO34] | 2.92 ± 0.15 | 3.02 ± 0.34 |  |  |
| ESLEDVAMYISQEEWGHQDPSKRA [ZNF263] | 4.99 ± 0.069 | 5.03 ± 0.26 |  |  |
| LPFKPFAIILPILLNIRVATKYV [MIA2] |  |  | 2.42 ± 0.81 | 3.36 ± 1.6 |

| Sequence | protein stability index [1] | protein stability index [2] | protein stability index [3] | protein stability index [4] |
| --- | --- | --- | --- | --- |
| SAWKTVACGGTRDQLFMQEKARQL [MYBL2] | 3.21 ± 0.33 | 3.33 ± 0.28 |  |  |
| DEVQIGPETVMTTLYTAKKYAVPA [BTBD1] | 3.67 ± 0.32 | 3.55 ± 0.41 |  |  |
| DSKSLKTHQTQPGIRRARDKALSG [NET1] | 4.63 ± 0.16 | 4.7 ± 0.18 |  |  |
| WGEGLHQLREALKILAERVLILET [EMID1] | 2.47 ± 0.24 | 2.78 ± 0.31 |  |  |
| NLKWLDLKDNPLDPVLAKVAGDCL [LRRC59] | 3.21 ± 0.26 | 3.08 ± 0.19 |  |  |
| PQAHQESTRGAARPAQAIGTQPRA [SPACA9] | 5.08 ± 0.23 | 5.35 ± 0.18 |  |  |
| GPLFNFDVHDDVRLLSDATVEKDE [FAM50A] | 5.23 ± 0.17 | 5.43 ± 0.11 |  |  |
| LTTFQDQLNRRGEFIQEIRRQLEA [OAS1] | 3.3 ± 0.35 | 3.29 ± 0.27 |  |  |
| TNNNIKQRLIKKVQEAVLDKWVND [GOLPH3] | 2.37 ± 0.4 | 2.36 ± 0.31 |  |  |
| ALDEIKLLKCVRESDPSDPNKDMV [SRPK2] | 4.75 ± 0.23 | 4.54 ± 0.26 |  |  |
| NPLIASSFSLVKLVLRRQLKNKCC [C22orf31] | 2.25 ± 0.35 | 2.18 ± 0.32 |  |  |
| IEQDAVVPSEWLSSVYKQQWFAML [GMCL1] | 2.26 ± 0.098 | 2.78 ± 0.3 |  |  |
| EERQAAQNECQVLKLLNHPNVIEY [NEK8] | 4.01 ± 0.16 | 4.29 ± 0.11 |  |  |
| YLLHGLECVVAMHQAQLISKIPHI [EIF5] | 3.37 ± 0.11 | 3 ± 0.25 |  |  |
| IRLTQYIDGQGRPRTSQSEETRVW [CAMK2B] | 3.13 ± 0.3 | 3.16 ± 0.14 |  |  |
| KKNWRRVYKSLLLLAYLIRNGSER [CLINT1] | 2.35 ± 0.65 | 2.44 ± 0.29 |  |  |
| YFYLGGARGAGPPEPLRICPLHIS [TRIM35] | 2.44 ± 0.28 | 2.04 ± 0.32 |  |  |
| MWAHSMTVQDYQDLIDRGWRRSGK [ATE1] | 3.11 ± 0.14 | 3.27 ± 0.24 |  |  |
| KGAVPRSIPNLAEVKKKGKMKKLG [HDAC6] | 4.51 ± 0.36 | 4.35 ± 0.5 |  |  |
| SDPQTVAGAFGYFQQDTKGLVDFR [LPCAT4] | 3.68 ± 0.41 | 3.71 ± 0.29 |  |  |
| LNLGSGTGYLSTMVGLILGPFGIN [PCMTD1] | 3.33 ± 0.73 | 2.87 ± 0.49 |  |  |
